Measured values from patent publication US20220267460A1 (MOMENTA PHARMACEUTICALS, published 2022).

How the values were obtained:
Assay in all cases: cell-based or functional assay
[1] = molecular target: T1, human FcγRIIa-H variant (Histidine at amino acid 131) (human, UniProt P12318 34-317)
T1 sequence (looked up): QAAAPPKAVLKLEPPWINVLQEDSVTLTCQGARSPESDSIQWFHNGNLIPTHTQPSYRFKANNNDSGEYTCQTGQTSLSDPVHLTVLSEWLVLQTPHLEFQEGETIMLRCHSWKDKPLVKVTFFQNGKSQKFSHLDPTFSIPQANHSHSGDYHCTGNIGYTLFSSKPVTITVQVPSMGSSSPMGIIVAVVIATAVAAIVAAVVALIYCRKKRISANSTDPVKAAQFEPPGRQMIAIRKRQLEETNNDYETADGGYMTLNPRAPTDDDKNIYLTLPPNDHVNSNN

FcγRIIIa [2] = molecular target: T2, FcγRIIIa (UniProt P08637 17-254)
[3] = molecular target: T1, human FcγRIIa-H variant (Histidine at …); remark: listed apart in the source
FcγRIIIa [4] = molecular target: T2, FcγRIIIa; remark: listed apart in the source

T2 sequence (P08637 17-254 F176V limits assumed): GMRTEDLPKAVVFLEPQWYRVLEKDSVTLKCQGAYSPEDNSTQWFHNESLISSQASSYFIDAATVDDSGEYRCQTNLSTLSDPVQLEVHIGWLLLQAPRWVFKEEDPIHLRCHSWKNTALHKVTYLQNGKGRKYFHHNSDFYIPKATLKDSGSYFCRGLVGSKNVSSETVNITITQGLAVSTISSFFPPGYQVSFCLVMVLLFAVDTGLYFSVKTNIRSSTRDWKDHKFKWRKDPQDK

B1: Fc-antigen binding domain construct 43 (CD20) (antibody, human IgG1, kappa)
heavy 1: QVQLVQSGAEVKKPGSSVKVSCKASGYAFSYSWINWVRQAPGQGLEWMGRIFPGDGDTDYNGKFKGRVTITADKSTSTAYMELSSLRSEDTAVYYCARNVFDGYWLVYWGQGTLVTVSSASTKGPSVFPLAPSSKSTSGGTAALGCLVKDYFPEPVTVSWNSGALTSGVHTFPAVLQSSGLYSLSSVVTVPSSSLGTQTYICNVNHKPSNTKVDKKVEPKSCDKTHTCPPCPAPELLGGPSVFLFPPKPKDTLMISRTPEVTCVVVDVSHEDPEVKFNWYVDGVEVHNAKTKPREEQYNSTYRVVSVLTVLHQDWLNGKEYKCKVSNKALPAPIEKTISKAKGQPREPQVYTLPPCRDKLTKNQVSLWCLVKGFYPSDIAVEWESNGQPENNYKTTPPVLDSDGSFFLYSKLTVDKSRWQQGNVFSCSVMHEALHNHYTQKSLSLSPGKGGGGGGGGGGGGGGGGGGGGDKTHTCPPCPAPELLGGPSVFLFPPKPKDTLMISRTPEVTCVVVDVSHEDPEVKFNWYVDGVEVHNAKTKPREEQYNSTYRVVSVLTVLHQDWLNGKEYKCKVSNKALPAPIEKTISKAKGQPREPQVYTLPPSRKELTKNQVSLTCLVKGFYPSDIAVEWESNGQPENNYKTTPPVLKSDGSFFLYSKLTVDKSRWQQGNVFSCSVMHEALHNHYTQKSLSLSPGQ
chain: not shown
heavy 2: not shown
light: DIVMTQTPLSLPVTPGEPASISCRSSKSLLHSNGITYLYWYLQKPGQSPQLLIYQMSNLVSGVPDRFSGSGSGTDFTLKISRVEAEDVGVYYCAQNLELPYTFGGGTKVEIKRTVAAPSVFIFPPSDEQLKSGTASVVCLLNNFYPREAKVQWKVDNALQSGNSQESVTEQDSKDSTYSLSSTLTLSKADYEKHKVYACEVTHQGLSSPVTKSFNRGEC
- EC50 (nM) Mean, FcγRIIa signaling in ADCP reporter assay (Raji target cells, Jurkat/FcγRIIa-H effector cells, luciferase) [1]: 7.8 nM
- EC50 (nM) Mean, FcγRIIIa signaling in ADCC reporter assay (Raji target cells, Jurkat/FcγRIIIa effector cells, luciferase) (FcγRIIIa [2]): 0.86 nM

B2: Fc-antigen binding domain construct 44 (CD20) (antibody, human IgG1, kappa)
heavy 1: QVQLVQSGAEVKKPGSSVKVSCKASGYAFSYSWINWVRQAPGQGLEWMGRIFPGDGDTDYNGKFKGRVTITADKSTSTAYMELSSLRSEDTAVYYCARNVFDGYWLVYWGQGTLVTVSSASTKGPSVFPLAPSSKSTSGGTAALGCLVKDYFPEPVTVSWNSGALTSGVHTFPAVLQSSGLYSLSSVVTVPSSSLGTQTYICNVNHKPSNTKVDKKVEPKSCDKTHTCPPCPAPELLGGPSVFLFPPKPKDTLMISRTPEVTCVVVDVSHEDPEVKFNWYVDGVEVHNAKTKPREEQYNSTYRVVSVLTVLHQDWLNGKEYKCKVSNKALPAPIEKTISKAKGQPREPQVYTLPPCRDKLTKNQVSLWCLVKGFYPSDIAVEWESNGQPENNYKTTPPVLDSDGSFFLYSKLTVDKSRWQQGNVFSCSVMHEALHNHYTQKSLSLSPGKGGGGGGGGGGGGGGGGGGGGDKTHTCPPCPAPELLGGPSVFLFPPKPKDTLMISRTPEVTCVVVDVSHEDPEVKFNWYVDGVEVHNAKTKPREEQYNSTYRVVSVLTVLHQDWLNGKEYKCKVSNKALPAPIEKTISKAKGQPREPQVYTLPPSRKELTKNQVSLTCLVKGFYPSDIAVEWESNGQPENNYKTTPPVLKSDGSFFLYSKLTVDKSRWQQGNVFSCSVMHEALHNHYTQKSLSLSPGQKGGGGGGGGGGGGGGGGGGGGDKTHTCPPCPAPELLGGPSVFLFPPKPKDTLMISRTPEVTCVVVDVSHEDPEVKFNWYVDGVEVHNAKTKPREEQYNSTYRVVSVLTVLHQDWLNGKEYKCKVSNKALPAPIEKTISKAKGQPREPQVYTLPPSRKELTKNQVSLTCLVKGFYPSDIAVEWESNGQPENNYKTTPPVLKSDGSFFLYSKLTVDKSRWQQGNVFSCSVMHEALHNHYTQKSLSLSPGQ
chain: not shown
heavy 2: not shown
light: DIVMTQTPLSLPVTPGEPASISCRSSKSLLHSNGITYLYWYLQKPGQSPQLLIYQMSNLVSGVPDRFSGSGSGTDFTLKISRVEAEDVGVYYCAQNLELPYTFGGGTKVEIKRTVAAPSVFIFPPSDEQLKSGTASVVCLLNNFYPREAKVQWKVDNALQSGNSQESVTEQDSKDSTYSLSSTLTLSKADYEKHKVYACEVTHQGLSSPVTKSFNRGEC
- EC50 (nM) Mean, FcγRIIa signaling in ADCP reporter assay (Raji target cells, Jurkat/FcγRIIa-H effector cells, luciferase) [1]: 0.17 nM
- EC50 (nM) Mean, FcγRIIIa signaling in ADCC reporter assay (Raji target cells, Jurkat/FcγRIIIa effector cells, luciferase) (FcγRIIIa [2]): 0.055 nM

B3: Fc-antigen binding domain construct 43 (PD-L1) (antibody, human IgG1, lambda)
heavy 1: not shown
chain: not shown
heavy 2: not shown
light: QSALTQPASVSGSPGQSITISCTGTSSDVGGYNYVSWYQQHPGKAPKLMIYDVSNRPSGVSNRFSGSKSGNTASLTISGLQAEDEADYYCSSYTSSSTRVFGTGTKVTVLGQPKANPTVTLFPPSSEELQANKATLVCLISDFYPGAVTVAWKADGSPVKAGVETTKPSKQSNNKYAASSYLSLTPEQWKSHRSYSCQVTHEGSTVEKTVAPTECS
- EC50 (nM) Mean, FcγRIIa signaling in ADCP reporter assay (HEK-PD-L1 target cells, Jurkat/FcγRIIa-H effector cells, luciferase) [3]: 0.037 nM
- EC50 (nM) Mean, FcγRIIIa signaling in ADCC reporter assay (HEK-PD-L1 target cells, Jurkat/FcγRIIIa effector cells, luciferase) (FcγRIIIa [4]): 0.028 nM

B4: Fc-antigen binding domain construct 44 (PD-L1) (antibody, human IgG1, lambda)
heavy 1: not shown
chain: not shown
heavy 2: not shown
light: QSALTQPASVSGSPGQSITISCTGTSSDVGGYNYVSWYQQHPGKAPKLMIYDVSNRPSGVSNRFSGSKSGNTASLTISGLQAEDEADYYCSSYTSSSTRVFGTGTKVTVLGQPKANPTVTLFPPSSEELQANKATLVCLISDFYPGAVTVAWKADGSPVKAGVETTKPSKQSNNKYAASSYLSLTPEQWKSHRSYSCQVTHEGSTVEKTVAPTECS
- EC50 (nM) Mean, FcγRIIa signaling in ADCP reporter assay (HEK-PD-L1 target cells, Jurkat/FcγRIIa-H effector cells, luciferase) [3]: 0.033 nM
